Data: paper PMC10933793
Ends that are not written are not given here.

Target: PL^pro domain of SARS-CoV-2 nsp3 (E746-T1063) (SARS-CoV-2)

B1: K193-branched IRF3_(189-197)-ISG15 oligopeptide 4 (peptide)
chain 1: ENPLKRLLV-NH2
chain 2: LSTVFMNLRLRGG
modifications: also: lactam at chain A 5 at chain B 13 to a chain's C-terminus
- PL^pro-catalysed isopeptide amide bond hydrolysis by SPE-MS, time course to ~240 min (0.2 uM PL^pro, 2.0 uM peptide, 50 mM Tris pH 8.0, ambient temperature): 20%
